The values that follow come from publication PMC5492076, “β-Cyanoalanine Synthases and Their Possible Role in Pierid Host Plant Adaptation” (Insects, 2017).

Substrate in the data set: N[C@@H](CS)C(=O)O
Put plainly: colorimetric sulfide formation, Michaelis-Menten fit. It is filed as biochemical, Aporia crataegi. Particulars: 6 mM KCN, 20 µM pyridoxal-5'-phosphate, Tris-HCl pH 8.5, 31 °C, 10 min. From the text: colorimetric sulfide formation, Michaelis-Menten fit on AcrBSAS3

B1: AcrBSAS3 (Aporia crataegi) (protein)
chain: MTNAISVSNEIKASALELIGNTPLLALDRLHPGPGRILVKCEFMNPGGSLKCRSSLHMIQKARERGELKPGGDVVEVTSGNQGCGLGVVCSVLGHPLTVTMSKGNSIQRALHMEALGAKCIRYPLVKGTYGNVTFADVEPALEGAMKMSEETGAFFVKQMANPDNIEAHYETTGPEIWRQSGHRVDAFVTAVGTSGTFTGVSKYLKEQNPEIQCFVVEPEGSQPLKGCPITKPLHMLQGASYGVVPDLFNPDLMEDSISVTDEESVHYKDLLGTKEGLFVGYTSGANVAAAVKLLNSGKLPKDAWVVTILSDTGLKYTPVPDNLIE
notes: N-terminal Strep-tag, E. coli BL21(DE3) pLysS; Strep-Tactin purified
A word on the Vmax: it is the rate approached at saturating substrate. Turning to B1, the Km is 1.31 (±0.08) mM and the Vmax stood at 1.12 µmol/min/mg.
